Data: patent US20250034594A1, “RNA-GUIDED GENOME RECOMBINEERING AT KILOBASE SCALE” (THE BOARD OF TRUSTEES OF THE LELAND STANFORD JUNIOR …, priority 2021, published 2025)

B1: SSAP_278: SEQ ID NO: 447; Paraliobacillus ryukyuensis (protein, listed as Paraliobacillus ryukyuensis)
chain: ATNDTLKNQISNKKNNQVAEGKQGTTMKGLLNSPAVMKRFEEVLGKRANQFTASILSLYNNEKTLQKSEPMSVISSAMIAATLDLPIDKNLGYAWIVPYGNKAQFQLGYKGYIQLALRTGQYRNINVIEVYEGELVKWNRLTEELELDFEQKKSDKVIGYTGYFELINGFRKTVYWSKADIEKHKQKFSKSNFGWSNDWDAMAKKTVIRNMLNKWGILSIDMQKAYSTDEIEQEQESNDFIDGEWAEVSEDDITEAMNEV
B2: SSAP_214: SEQ ID NO: 383; Clostridium tunisiense (protein)
chain: TTKANVTSVKNALKEQIQVQQVAAQTDTSFQGVLTKQLQHQFKAIQSLVPKHVTPERLCRIGINAASRNPQLMNCTPETIVGAIVNCATLGLEPNLLGHAYIVPFYNNKTGKMEAQFQVGYKGALDLIRRTGAVSTLSAHEVYGPRSIFWTQYFY
modifications: Clostridium tunisiense
B3: SSAP_134: SEQ ID NO: 303; Andreesenia angusta (protein, listed as Andreesenia angusta)
chain: SNLKNQLANKAGGTATKKQPQTMQDWIKVMEPQIKKALPSVITAERFTRMALTAISTNPKLAECTPESFMGALMNAAQLGLEPNTPLGQAYLIPYGKSVQFQVGYKGLMELAQRSGQFKSIYAHTVYENDEFEVEYGLTQNIVHKPNFDDRGKPIGFYAVYKLTNGGENFVFMTQREVEEFGKAKSKTFNNGPWKTDFEAMAKKTVLKQLLKYAPIKVEFQREIAQDATIKTEIAEDMTEVPEEMVEAEYEVVEQNTMAEDADLKGTPFETK
B4: SSAP_307: SEQ ID NO: 476; Acetobacterium dehalogenans (protein)
chain: CLRSWTRSFSNSVPLKIRFRLLYTAFLSQGSPLSSVNTTQSADKGSPIFFYAMFKTKDGGYGFEVMSVEDVRAHAKKYSQSFSSAYSPWSKNFEEMAKKTVLKKALKYAPLKSDFVRGIVVDETIKREISEDMYAAPSIEIEYEVDEDGVIQDEPTSNELTEAEK
modifications: Acetobacterium dehalogenans
B5: SSAP_17: SEQ ID NO: 186 (protein)
chain: ATNDELKNQLANKQNGGQVASAQSLDLKGLLEAPTMRKKFEKVLDKKAPQFLTSLLNLYNGDDYLQKTDPMTVVTSAMVAATLDLPIDKNLGYAWIVPYKGRAQFQLGYKGYIQLALRTGQYKSINVIEVRDGELLKWNRLTEEIELDLDNNTSEKVIGYCGYFQLINGFEKTVYWTRKEIEAHKKKFSKSDFGWKKDYDAMAKKTVLRNMLSKWGILSIDMQTAVTEDEAEPRERKDVTEDESIPDIIDAPITPSDTLEAGSEVQGSMI

Experiments:
Type in all cases: cell-based
gene editing with Cas9 = assay: Screen of 322 new SSAP proteins, gene editing activity with Cas9 (Table 5); parameters: Cas9 with SSAP activity: scale not given here
Summary of the method: (§1)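 Synthetic SSAP candidates, identified computationally, were tested in editing screens using both Cas9 and dCas9.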

gene editing with dCas9 = assay: Screen of 322 new SSAP proteins, gene editing activity with dCas9 (Table 5); parameters: dCas9 with SSAP activity: scale not given here
Summary of the method: as §1

[1] = system: gene editing with Cas9 and dCas9; assay: Screen of 322 new SSAP proteins, activity across all experiments (Cas9 and dCas9, Table 5); parameters: scale not given here
Summary of the method: as §1

Molecule	Cas9 with SSAP activity (gene editing with Cas9)	Cas9 with SSAP activity (normalized) (gene editing with Cas9)	dCas9 with SSAP activity (gene editing with dCas9)	dCas9 with SSAP activity (normalized) (gene editing with dCas9)	Activity across all experiments [1]
B1	1.070	2.231	−1.129	−1.000	−0.030
B2	−0.428	−0.545	−1.088	−1.120	−0.758
B3	−1.284	−1.104	−1.053	−0.424	−1.168
B4	−1.090	−2.185	−1.100	−0.907	−1.095
B5	−0.287	−0.195	−1.088	−0.491	−0.687
